± gives the standard error. Variants at the floor of the assay were thinned out.
B1: glmS ribozyme (parent)
chain: AUAAAAGCGCCAGAACUACAGAAAUGUAGUUGACGAGGAGGAGGUUUAUCGAAUUUUCGGCGGAUGCCUCCAAA

Assays:
Conditions in all cases: with glucosamine-6-phosphate
glucosamine-6-phosphate [1] = variants of: B1; assay: self-cleavage kobs at 640 uM GlcN6P; higher = faster cleavage; RNA array
How it was run: (§1)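 Weighted Michaelis–Menten fits across concentrations supplied kcat and KM, based on kobs from one- or two-exponential decay fits to normalised per-tile medians. The data came from barcoded ribozyme variants transcribed in situ by E. coli RNA polymerase on sequenced MiSeq chips and tracked at 37 °C by a hybridised Cy3 probe. Glucosamine-6-phosphate (40 μM to 10 mM) in HEPES/KCl/Mg(OAc)2 buffer was flowed in.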

glucosamine-6-phosphate [2] = variants of: B1; assay: self-cleavage kobs at 2500 uM GlcN6P; higher = faster cleavage; RNA array
How it was run: as §1

glucosamine-6-phosphate [3] = variants of: B1; assay: self-cleavage kobs at 10000 uM GlcN6P; higher = faster cleavage; RNA array
How it was run: as §1

Variant	self-cleavage kobs at 640 uM GlcN6P (glucosamine-6-phosphate [1]) [s⁻¹]	self-cleavage kobs at 2500 uM GlcN6P (glucosamine-6-phosphate [2]) [s⁻¹]	self-cleavage kobs at 10000 uM GlcN6P (glucosamine-6-phosphate [3]) [s⁻¹]
C8A A36C C68U	< 1e-05		
G41C G51U U55G	< 1e-05	< 1e-05	
C8A A36U U45C U57A	< 1e-05		
U31G A36U G38U A48U A53C G59C A64C	< 1e-05		
G29U A53C G62C	< 1e-05		
A42U U46G A48C	< 1e-05		
A15U G41U G66U C70U	4.78e-05 ± 1.4e-05		
C8G A42C U47A	< 1e-05	< 1e-05	
C11A U30C A53C C71U	< 1e-05		
C11G A42U G63U	< 1e-05		
A42U C70A C71G	< 1e-05		
C16U G60U C61G	< 1e-05		
G38C G51U G59A G60A	< 1e-05		
G7U G13A G29U	< 1e-05	< 1e-05	< 1e-05
G13A A42C G51C C61A	< 1e-05	< 1e-05	
G9C U65A C68G	0.000522 ± 0.00017		6.3e-05 ± 2.2e-05
A42C G43C C70U	< 1e-05		
A39C G60U G66U	< 1e-05	< 1e-05	
C11A G37C G62A	< 1e-05		
G7A A15U U56G C58A	< 1e-05		
A33G G40C G41C G43A U49A	< 1e-05	< 1e-05	
G29C G43U U57G	< 1e-05		
G29A A39G U54A	0.00173 ± 0.00059	0.00457 ± 0.0012	

Variant	self-cleavage kobs at 640 uM GlcN6P (glucosamine-6-phosphate [1]) [s⁻¹]	self-cleavage kobs at 2500 uM GlcN6P (glucosamine-6-phosphate [2]) [s⁻¹]	self-cleavage kobs at 10000 uM GlcN6P (glucosamine-6-phosphate [3]) [s⁻¹]
C11A G38A U47C	< 1e-05		
C34A A42C C70A	< 1e-05		
G9U G40A C61G	< 1e-05		
A15C A48U U49G G62U	< 1e-05		
G7U U54A	< 1e-05	< 1e-05	< 1e-05
A33U G35U U54A	< 1e-05		< 1e-05
A24C A52U G59A	< 1e-05		< 1e-05
G7U A15C A39C	< 1e-05		
G13C G43C A48U	< 1e-05	< 1e-05	
G51U G62U C70U	< 1e-05		
G37C A52C	< 1e-05	< 1e-05	< 1e-05
A6G C16A A52C	< 1e-05	< 1e-05	
U31A C34U A42C A48U G62U	< 1e-05		
C10U A52C G66A	< 1e-05	< 1e-05	
C10A C16A G51U A64C	< 1e-05		
G29U G35C A52G	< 1e-05	< 1e-05	
A12C U49A A52C	< 1e-05		
G32U A33U U45A	< 1e-05		
C16G U31G U54G	0.000146 ± 3.7e-05	0.000327 ± 5.9e-05	
G13U G51C G62C	< 1e-05		
A15C A33U G40A	< 1e-05		
G29A U45G	0.000156 ± 4.7e-05	0.000503 ± 0.00012	
G29A G35U A42U	< 1e-05	< 1e-05	< 1e-05

Variant	self-cleavage kobs at 640 uM GlcN6P (glucosamine-6-phosphate [1]) [s⁻¹]	self-cleavage kobs at 2500 uM GlcN6P (glucosamine-6-phosphate [2]) [s⁻¹]	self-cleavage kobs at 10000 uM GlcN6P (glucosamine-6-phosphate [3]) [s⁻¹]
A36C G38A A53U C68G	9.97e-05 ± 4.4e-05		
A6C G9C G32A C50U A53G	< 1e-05	< 1e-05	
A12C U54G C68G	4.37e-05 ± 1.2e-05	5.51e-05 ± 1.5e-05	
U47G A48G G63A	< 1e-05		
U31C G32A U65G	5.75e-05 ± 1.9e-05	0.000133 ± 3.3e-05	
C16G U30A U55G	0.000125 ± 5.7e-05	8.11e-05 ± 3.1e-05	
C11G C16U G37A U45C A64G	< 1e-05		
G29U G32U C58U C67A	3.68e-05 ± 1.8e-05	8.93e-05 ± 2.6e-05	
A6G G41C A42C	< 1e-05	< 1e-05	
U45C U47G G51U	< 1e-05		
A15G A33G A48G G60U	< 1e-05		
G9U C10G A15G G38U A39G A52U	< 1e-05	< 1e-05	< 1e-05
G41A G51C A64C	< 1e-05		
G35A A36U G41A C58A	< 1e-05	< 1e-05	
C11U U30C C71A	0.000112 ± 2.4e-05	6.85e-05 ± 2.1e-05	
A12U G37A U56G	0.00137 ± 0.00022	0.00379 ± 0.00089	
A14C A39G C70U	0.000886 ± 0.00029		
C8U G62A C70U	6.07e-05 ± 2.6e-05		
A12G G63A A64C	< 1e-05		
A14C G40A G60U	< 1e-05	< 1e-05	
G29C G44C C67G	0.000127 ± 3.8e-05	0.000256 ± 0.00011	
A14U G35A G40C	< 1e-05		
G38U U57A C71G	< 1e-05	< 1e-05	
